Assay results: patent US20230416345A1, “NEW TYPE II COLLAGEN BINDING PROTEINS” (Navigo Proteins GmbH, priority 2020, published 2023)

Key:
[1] = molecular target: T1, Type III collagen (Homo sapiens, UniProt P02461); assay: SPR specificity vs Type III collagen; type: binding
T1 sequence (P02461 154-1221 limits assumed): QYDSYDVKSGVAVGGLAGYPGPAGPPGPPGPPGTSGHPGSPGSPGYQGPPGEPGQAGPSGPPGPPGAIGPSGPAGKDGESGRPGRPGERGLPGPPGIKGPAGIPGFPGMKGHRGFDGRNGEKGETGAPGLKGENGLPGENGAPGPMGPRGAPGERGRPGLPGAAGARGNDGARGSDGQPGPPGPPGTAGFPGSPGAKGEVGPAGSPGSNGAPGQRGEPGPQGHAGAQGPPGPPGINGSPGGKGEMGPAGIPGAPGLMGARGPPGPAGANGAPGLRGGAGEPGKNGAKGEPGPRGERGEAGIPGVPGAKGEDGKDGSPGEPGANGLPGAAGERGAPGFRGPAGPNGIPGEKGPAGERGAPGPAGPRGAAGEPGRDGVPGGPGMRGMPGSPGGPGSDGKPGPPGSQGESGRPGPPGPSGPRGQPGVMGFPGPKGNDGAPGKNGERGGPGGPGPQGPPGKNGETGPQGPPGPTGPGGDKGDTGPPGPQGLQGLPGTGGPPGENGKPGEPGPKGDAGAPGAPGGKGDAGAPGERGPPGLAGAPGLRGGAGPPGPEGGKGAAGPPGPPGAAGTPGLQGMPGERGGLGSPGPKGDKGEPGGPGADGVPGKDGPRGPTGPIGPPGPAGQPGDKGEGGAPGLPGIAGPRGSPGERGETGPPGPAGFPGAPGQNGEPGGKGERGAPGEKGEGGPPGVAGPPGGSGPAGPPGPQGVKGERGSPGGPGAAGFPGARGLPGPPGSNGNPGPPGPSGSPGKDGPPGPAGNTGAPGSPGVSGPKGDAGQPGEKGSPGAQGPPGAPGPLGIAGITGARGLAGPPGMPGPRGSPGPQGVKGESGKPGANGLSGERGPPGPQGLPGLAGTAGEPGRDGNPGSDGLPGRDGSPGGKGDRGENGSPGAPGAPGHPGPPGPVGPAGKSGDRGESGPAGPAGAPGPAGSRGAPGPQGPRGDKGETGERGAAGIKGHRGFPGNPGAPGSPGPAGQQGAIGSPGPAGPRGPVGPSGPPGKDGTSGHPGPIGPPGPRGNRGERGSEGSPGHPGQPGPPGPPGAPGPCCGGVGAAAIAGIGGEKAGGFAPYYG
Procedure: (§1) The purified proteins were immobilized on a CM-5 sensor chip (GE Healthcare) using NHS/EDC after PDEA activation resulting in 110-140 RU with a Biacore 3000 system (GE Healthcare). The chip was equilibrated with SPR running buffer (PBS 0.05% Tween pH 7.3). Upon binding, target analyte was accumulated on the surface increasing the refractive index. This change in the refractive index was measured in real time and plotted as response or resonance units versus time. The analytes were applied to the chip in serial dilutions with a flow rate of 30 μl/min. The association was performed for 120 seconds and the dissociation for 120 seconds. After each run, the chip surface was regenerated with 30 μl regeneration buffer (10 mM glycine pH 2.0) and equilibrated with running buffer.
(§2) Binding studies were carried out by the use of the BIAcore 3000 (GE Healthcare); data evaluation was operated via the BIAevaluation 3.0 software, provided by the manufacturer, using the Langmuir 1:1 model (RI=0). Evaluated dissociation constants (KD) were standardized against the immobilized protein and indicated. Shown is the change in refractive index measured in real time and plotted as response or resonance unit [RU] versus time [sec].

[2] = molecular target: T2, porcine collagen type II (p Col II) (Sus scrofa, UniProt A0A287A2Q7); assay: KD-determination by ELISA vs porcine collagen type II; type: binding
T2 construct: porcine collagen type II (p Col II, prepared from porcine eyes); from tissue; host or cells: porcine eyes
Procedure: (§3) High binding plates (Greiner, 781061) were immobilized with 2.5 μg/ml recombinant human collagen type II (h Col II, Chondrex, CHX-20051), rabbit collagen type II (rbCol II, prepared from rabbit eyes), porcine collagen type II (p Col II, prepared from porcine eyes), human collagen type I, (h Col I, Sigma, C5483-1MG), human collagen type V (h Col V, Abcam, ab7537), human collagen type III (h Col Ill, Abcam, ab7535) and 67B89 (domain of fibronectin, produced in E. coli) respectively over night at 4° C. ELISA-plates were washed 3 times with PBST (PBS+ 0.1% Tween) and blocked with 3% BSA/0.5% Tween/PBS 2 h at RT. After washing with PBST, dilution series of 1.1 μM to 7×10^−4 nM of dimers (CID 211999, CID 212000), dilution series of 100 nM to 7×10^−6 nM of tetramers (CID 212001 and CID 212704) and dilution series of 10 μM to 2 nM of dimer (CID 212705) were incubated on ELISA-plates 1 h at rt. Plates were washed with PBST and incubated with biotinylated anti-StrepTag-ab (Antikörper-online, ABIN1573895) with a dilution of 1:10.000 for 1 h at rt. The binding was visualized with a-rabbit-IgG-HRP (Sigma, A9169) with a dilution of 1:10.000 and as substrate TMB Plus von KEM EN TEC Diagnostic, Kat-Nr. 4395.

[3] = molecular target: Type V collagen (Homo sapiens, UniProt P05997+P20908); assay: SPR specificity vs Type V collagen; type: binding
Chain of Type V collagen (P20908 38-1605 limits assumed): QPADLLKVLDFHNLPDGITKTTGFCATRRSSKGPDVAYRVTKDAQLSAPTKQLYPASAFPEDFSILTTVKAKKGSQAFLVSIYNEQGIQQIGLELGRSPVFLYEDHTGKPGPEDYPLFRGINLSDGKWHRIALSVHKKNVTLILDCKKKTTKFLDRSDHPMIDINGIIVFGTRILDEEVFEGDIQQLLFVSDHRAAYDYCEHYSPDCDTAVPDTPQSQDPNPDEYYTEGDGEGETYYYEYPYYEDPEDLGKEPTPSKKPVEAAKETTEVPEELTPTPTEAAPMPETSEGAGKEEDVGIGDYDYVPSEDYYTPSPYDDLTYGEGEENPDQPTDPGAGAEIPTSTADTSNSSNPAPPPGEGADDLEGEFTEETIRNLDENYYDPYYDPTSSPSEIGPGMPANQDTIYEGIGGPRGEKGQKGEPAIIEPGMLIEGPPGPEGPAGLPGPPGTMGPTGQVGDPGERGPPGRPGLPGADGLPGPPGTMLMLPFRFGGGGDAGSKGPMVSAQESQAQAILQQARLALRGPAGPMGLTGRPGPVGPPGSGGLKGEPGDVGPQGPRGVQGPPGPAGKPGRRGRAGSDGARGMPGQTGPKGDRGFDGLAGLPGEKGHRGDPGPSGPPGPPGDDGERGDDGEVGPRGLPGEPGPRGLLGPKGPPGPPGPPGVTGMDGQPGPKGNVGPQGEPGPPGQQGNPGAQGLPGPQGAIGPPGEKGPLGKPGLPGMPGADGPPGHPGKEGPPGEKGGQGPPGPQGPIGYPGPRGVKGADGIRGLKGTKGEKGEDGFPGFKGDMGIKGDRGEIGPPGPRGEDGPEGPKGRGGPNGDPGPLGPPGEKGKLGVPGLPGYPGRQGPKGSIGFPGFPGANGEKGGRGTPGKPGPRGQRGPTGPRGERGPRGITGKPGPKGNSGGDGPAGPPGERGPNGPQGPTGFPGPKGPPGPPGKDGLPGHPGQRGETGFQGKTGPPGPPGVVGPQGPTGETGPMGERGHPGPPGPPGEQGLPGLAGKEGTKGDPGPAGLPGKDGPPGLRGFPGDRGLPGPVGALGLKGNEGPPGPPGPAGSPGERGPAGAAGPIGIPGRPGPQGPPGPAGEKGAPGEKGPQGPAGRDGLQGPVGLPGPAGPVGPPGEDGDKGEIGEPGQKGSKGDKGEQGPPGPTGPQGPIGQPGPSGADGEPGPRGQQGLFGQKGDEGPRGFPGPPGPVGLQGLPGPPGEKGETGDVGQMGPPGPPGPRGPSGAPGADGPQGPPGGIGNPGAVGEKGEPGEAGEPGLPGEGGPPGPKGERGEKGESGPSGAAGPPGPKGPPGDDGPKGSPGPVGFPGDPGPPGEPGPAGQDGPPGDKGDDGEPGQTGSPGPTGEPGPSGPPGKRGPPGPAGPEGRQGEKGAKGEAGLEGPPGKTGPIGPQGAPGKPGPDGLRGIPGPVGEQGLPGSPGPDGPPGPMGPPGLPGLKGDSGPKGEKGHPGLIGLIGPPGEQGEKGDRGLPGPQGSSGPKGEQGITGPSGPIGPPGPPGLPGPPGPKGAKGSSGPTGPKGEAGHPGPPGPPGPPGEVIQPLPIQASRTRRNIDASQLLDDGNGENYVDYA
Chain of Type V collagen (P05997 27-1229 limits assumed): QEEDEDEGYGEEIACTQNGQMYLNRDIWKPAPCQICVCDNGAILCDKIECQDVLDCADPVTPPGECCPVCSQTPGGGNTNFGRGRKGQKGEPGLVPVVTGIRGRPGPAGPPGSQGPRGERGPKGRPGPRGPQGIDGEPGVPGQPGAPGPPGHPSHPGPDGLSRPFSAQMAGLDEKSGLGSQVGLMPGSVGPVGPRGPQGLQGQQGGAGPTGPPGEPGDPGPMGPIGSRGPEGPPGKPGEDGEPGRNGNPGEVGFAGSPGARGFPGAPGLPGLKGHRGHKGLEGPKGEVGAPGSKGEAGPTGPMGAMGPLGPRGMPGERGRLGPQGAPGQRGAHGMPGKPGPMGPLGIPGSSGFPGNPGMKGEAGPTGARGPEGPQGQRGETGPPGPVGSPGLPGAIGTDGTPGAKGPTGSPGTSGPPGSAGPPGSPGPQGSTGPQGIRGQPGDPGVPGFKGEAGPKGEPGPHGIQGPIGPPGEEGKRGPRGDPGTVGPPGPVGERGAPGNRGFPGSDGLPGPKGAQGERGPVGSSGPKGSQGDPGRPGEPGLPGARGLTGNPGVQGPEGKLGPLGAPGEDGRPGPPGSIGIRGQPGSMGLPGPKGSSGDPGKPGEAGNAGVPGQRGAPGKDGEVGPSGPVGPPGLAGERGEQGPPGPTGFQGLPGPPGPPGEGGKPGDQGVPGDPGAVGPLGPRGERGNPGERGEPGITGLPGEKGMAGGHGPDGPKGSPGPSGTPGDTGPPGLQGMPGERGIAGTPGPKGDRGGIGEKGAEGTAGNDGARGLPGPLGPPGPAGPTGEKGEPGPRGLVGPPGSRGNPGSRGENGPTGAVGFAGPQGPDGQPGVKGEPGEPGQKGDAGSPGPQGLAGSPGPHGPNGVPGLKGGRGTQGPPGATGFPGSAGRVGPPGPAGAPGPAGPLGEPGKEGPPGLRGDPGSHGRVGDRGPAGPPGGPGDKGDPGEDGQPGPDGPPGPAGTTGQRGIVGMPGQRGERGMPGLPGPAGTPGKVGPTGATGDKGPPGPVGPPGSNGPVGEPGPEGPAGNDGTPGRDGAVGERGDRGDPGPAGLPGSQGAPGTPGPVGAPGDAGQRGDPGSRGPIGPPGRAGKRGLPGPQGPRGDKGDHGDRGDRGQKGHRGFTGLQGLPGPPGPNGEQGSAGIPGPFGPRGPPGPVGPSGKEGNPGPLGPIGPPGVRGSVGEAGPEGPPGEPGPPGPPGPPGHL
Procedure: as §1, §2

[4] = molecular target: T3, recombinant human collagen type II (h Col II) (Homo sapiens, UniProt P02458); assay: KD-determination by ELISA vs human collagen type II; type: binding
T3 construct: purchased Chondrex CHX-20051
T3 sequence (P02458 182-1241): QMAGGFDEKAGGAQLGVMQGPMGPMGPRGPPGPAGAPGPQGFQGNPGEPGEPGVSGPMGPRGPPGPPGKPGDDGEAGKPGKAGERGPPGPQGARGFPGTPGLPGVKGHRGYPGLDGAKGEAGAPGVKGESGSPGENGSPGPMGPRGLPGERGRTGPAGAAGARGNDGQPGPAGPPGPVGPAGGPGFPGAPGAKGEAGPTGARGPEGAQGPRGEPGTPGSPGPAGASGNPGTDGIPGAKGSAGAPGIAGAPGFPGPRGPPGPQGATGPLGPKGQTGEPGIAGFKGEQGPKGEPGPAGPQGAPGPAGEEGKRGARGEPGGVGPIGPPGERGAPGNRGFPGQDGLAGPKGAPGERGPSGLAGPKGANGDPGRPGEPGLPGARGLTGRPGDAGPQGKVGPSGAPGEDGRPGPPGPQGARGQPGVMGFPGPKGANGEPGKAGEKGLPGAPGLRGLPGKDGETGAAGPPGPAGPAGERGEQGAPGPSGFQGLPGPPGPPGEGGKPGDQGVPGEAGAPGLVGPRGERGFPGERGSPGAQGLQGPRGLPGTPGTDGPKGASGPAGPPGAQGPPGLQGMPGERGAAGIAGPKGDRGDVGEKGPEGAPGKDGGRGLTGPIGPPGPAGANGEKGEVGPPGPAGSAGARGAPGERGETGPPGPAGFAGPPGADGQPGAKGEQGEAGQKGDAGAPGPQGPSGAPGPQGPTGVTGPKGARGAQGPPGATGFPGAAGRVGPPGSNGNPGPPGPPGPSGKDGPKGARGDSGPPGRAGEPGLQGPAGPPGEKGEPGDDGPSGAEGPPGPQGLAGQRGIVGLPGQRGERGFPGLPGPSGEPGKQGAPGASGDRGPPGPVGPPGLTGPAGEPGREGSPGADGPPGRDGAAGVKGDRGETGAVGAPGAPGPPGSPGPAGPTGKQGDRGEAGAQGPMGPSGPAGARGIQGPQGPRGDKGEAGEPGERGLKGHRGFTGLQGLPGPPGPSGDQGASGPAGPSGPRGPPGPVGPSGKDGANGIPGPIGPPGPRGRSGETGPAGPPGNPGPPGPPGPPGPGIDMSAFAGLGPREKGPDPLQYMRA
Procedure: as §3

[5] = molecular target: Type I collagen (Homo sapiens, UniProt P02452+P08123); assay: SPR specificity vs Type I collagen; type: binding
Procedure: as §1, §2

[6] = Soluble expression in Escherichia coli BL21(DE3); type: physicochemical; details: expression in E. coli BL21(DE3)
Procedure: Variants with affinity tag were expressed in Escherichia coli BL21(DE3) using a low copy plasmid system under regulation of a T7 promoter. Proteins were produced in soluble form after induction by lactose included in the medium (autoinduction medium). BL21 (DE3) competent cells were transformed with the expression plasmid, spread onto selective agar plates (kanamycin) and incubated overnight at 37° C. Precultures were inoculated from single colony in 3 ml 2×YT medium supplemented with 50 μg/ml kanamycin and cultured for 6 hours at 37° C. at 200 rpm in a conventional orbital shaker in culture tubes. […] Cultures were transferred to an orbital shaker and incubated at 30° C. and 200 rpm. Recombinant protein expression was induced by metabolizing glucose and subsequently allowing lactose to enter the cells. Cells were grown overnight for approx. 17 hours to reach a final OD600 of about 2-4. Before the harvest, the OD600 was measured, samples adjusted to 0.6/OD600 were withdrawn, pelleted and frozen at −20° C. To collect biomass cells were centrifuged at 12000×g for 15 min at 22° C. Pellets were weighed (wet weight). Cells were stored at −20° C. before processing.
(§4) Proteins with affinity tag were purified by affinity chromatography and size exclusion. After affinity chromatography purification using Strep-Tactin Superflow high capacity cartridges (IBA Lifesciences) a size exclusion chromatography (SEC) was performed using an Äkta system and a Superdex™ 200 HiLoad 16/600 column (Cytiva). Fused variants with Aflibercept were purified via MabSelect SuRe (Cytiva) affinity chromatography followed by a size exclusion chromatography (SEC) using an Äkta system and a Superdex™ 200 HiLoad 16/600 column (Cytiva). All chromatography processing steps were carried out on AKTA systems using matrices from Cytiva. Homogenous species of all purified ligands were obtained; no aggregation was detected. Following SOS-PAGE analysis positive fractions were pooled and their protein concentrations were measured. Further analysis included SOS-PAGE, SE-HPLC and RP-HPLC. Protein concentrations were determined by absorbance measurement at 280 nm using the molar absorbent coefficient. Reversed phase chromatography (RP-HPLC) was performed using a Dionex HPLC system and a PLRP-S (5 μm, 300 Å) column (Agilent). Analytic size exclusion chromatography (SE-HPLC) was performed using a Dionex HPLC system and a Superdex200 increase 5/150 GL (Cytiva). Binding of Collagen II was evaluated by SPR measurements using a Biacore 3000 system. Purified Collagen II was obtained from Chondrex.inc and VEGF-165 was obtained from Millipore. Targets were immobilized on a CM5-Sensor via NHS/EDC chemistry (immobilization level ˜1000 RU). Binding molecules were injected at different concentration and affinity was calculated by langmuir 1:1 binding model.

[7] = molecular target: T4, hCol2 (human Type II collagen) (Homo sapiens, UniProt P02458); assay: Binding analysis by SPR (Biacore 3000) vs human type II collagen
T4 construct: purchased Chondrex
T4 sequence (P02458 182-1241): as above
Procedure: as §4, §1, §2

Binding to Type III collagen (SPR) [1]: no binding
specific binding vs porcine type II collagen (ELISA) [2]: 0.7 µM
Binding to Type V collagen (SPR) [3]: no binding
binding affinity (KD) to human type II collagen (ELISA) [4]: 700 nM
Binding to Type I collagen (SPR) [5]: no binding
Affinity [SPR] vs hCol2 ([7]; dimers or tetramers, Langmuir 1:1 model): 784 nM
Kd ([7]; multi-cycle Biacore measurement, FIG. 4B, read-out: KD for Type II collagen, equilibrium fit of amplitudes): 780 nM
B1: CID 211519: homodimer of SEQ ID NO: 11 (protein)
chain: IAAKFDEAQQAAFYEILHLPNLTEQQRNYFIQWLRDDPSVSPTVLGTAQQLNDSQAPKIAAKFDEAQQAAFYEILHLPNLTEQQRNYFIQWLRDDPSVSPTVLGTAQQLNDSQAPK
modifications: Col2 binding protein (dimer) 211519
Solubility Soluble expression [6]: 95%
Binding to type II collagen via SPR ([7]; FIG. 3, FIG. 4A): binding to Type II collagen with transient binding signal
